Test results as given in paper PMC9482650 (Nature Communications, 2022).
Square brackets hold non-standard residues; d marks the D form. Ends that are not written are not given here. * marks the point of attachment. Biotin = O=C1N[C@H]2[C@H](CS[C@H]2CCCCC(=O)*)N1; pS = N[C@@H](COP(=O)(O)O)C(=O)O

Legend:
[1] = molecular target: T1, HTLV1 Tax1 PBM (HTLV1, also: biotin attached via linker (not given here)); assay: holdup assay
T1 chain: Biotin-SEKHFRETEV-OH

[2] = molecular target: T2, RPS6KA1 PBM (human, also: biotin via linker: TTDS, Ahx or Ado-Ado); assay: holdup assay; biotinylated PBM peptide saturating streptavidin resin, His6-MBP-PDZ (4 µM) in solution, 15 min at room temperature, no washing, filtration; 50 mM TRIS pH 7.5, 300 mM NaCl, 1 mM TCEP; binding intensity converted to a steady-state Kd given as pKd; PDZ in bacterial lysate (LYSC), single (SAPF) or double (DAPF) affinity purified, which one for a given pair is not given
T2 chain: Biotin-RVRKLPSTTL-OH

[3] = molecular target: T3, p-3 phosphorylated RPS6KA1 PBM (human, not fully specified (N-terminus); also: N-terminal linker between biotin and peptide, type not given here); assay: as above
T3 chain: RVRKLP[pS]TTL-OH

B1: His6-MBP-SYNJ2BP PDZ (domain or fragment, human, UniProt P57105 13-100, looked up)
chain: EINLTRGPSGLGFNIVGGTDQQYVSNDSGIYVSRIKENGAAALDGRLQEGDKILSVNGQDLKNLLHQDAVDLFRNAGYAVSLRVQHRL
Q: Which results are given for B1?
A: pKd [1]: 6.04 pKd (-log10 of Kd in M); pKd [2]: 3.82 pKd (-log10 of Kd in M); pKd [3]: 4.48 pKd (-log10 of Kd in M)
